Experimental data: article PMC7382281 (Proceedings of the National Academy of Sciences of the …, 2020)
“And” between values parts separate entries of the source, which are not always exact repeats. Equal entries are not always repeated. Where two headings read alike, the source gives them in different places.

Assays:
[1] = biological target: AceI (Acinetobacter chlorhexidine efflux protein I) (Acinetobacter baumannii, UniProt P0DUT9, E15Q); test: native mass spectrometry of purified mutant; format: binding
[2] = biological target: AceR (Acinetobacter chlorhexidine efflux protein regulator) (Acinetobacter baumannii, UniProt P0DUU5); test: isothermal titration calorimetry (AceR^CTD); native MS titration (AceR^FL); format: binding
Source text: isothermal titration calorimetry (AceR^CTD); native MS titration (AceR^FL) on AceR (Acinetobacter chlorhexidine efflux protein regulator) | we used isothermal titration calorimetry.

[3] = biological target: T1, AceI (Acinetobacter chlorhexidine efflux protein I) (Acinetobacter baumannii, UniProt P0DUT9); test: native mass spectrometry of purified protein in detergent; format: binding
T1 construct: amino acid residues 36 to 179, with a C-terminal hexahistidine tag

[4] = biological target: AceI (Acinetobacter chlorhexidine efflux protein I), truncated form, residues 36 to 179 with a C-ter (A. baumannii); test: native MS
[5] = biological target: AceI (Acinetobacter chlorhexidine efflux protein I), truncated form, residues 36 to 179, with C-term (A. baumannii); test: native MS
[6] = biological target: BRIL (apocytochrome b562RIL)-fusion construct of full-length AceI (residues 1 to 179) (A. baumannii) (UniProt P0DUT9); test: native MS
[7] = biological target: BRIL (apocytochrome b562RIL)-fusion construct of truncated AceI (residues 36 to 179) (A. baumannii); test: native MS
[8] = biological target: BRIL (apocytochrome b562RIL)-fusion of full-length AceI (residues 1 to 179) (A. baumannii) (UniProt P0DUT9); test: native MS
[9] = biological target: BRIL (apocytochrome b562RIL)-fusion of truncated AceI (residues 36 to 179) (A. baumannii); test: native MS
[10] = biological target: E15Q AceI mutant (A. baumannii); test: native MS
[11] = biological target: T2, AceRFL (BRIL-AceR full length) (Acinetobacter baumannii, UniProt P0DUU5 1-297); test: native MS; no chlorhexidine; one RS2 per dimer; native MS; 200 mM ammonium acetate, pH 8.0 (AceRFL-DNA); temperature not stated; conditions: protein: recombinant; tags: N-terminal BRIL (apocytochrome b562RIL) fusion; 6xHis; chain copies: 2; blunt
T2 sequence: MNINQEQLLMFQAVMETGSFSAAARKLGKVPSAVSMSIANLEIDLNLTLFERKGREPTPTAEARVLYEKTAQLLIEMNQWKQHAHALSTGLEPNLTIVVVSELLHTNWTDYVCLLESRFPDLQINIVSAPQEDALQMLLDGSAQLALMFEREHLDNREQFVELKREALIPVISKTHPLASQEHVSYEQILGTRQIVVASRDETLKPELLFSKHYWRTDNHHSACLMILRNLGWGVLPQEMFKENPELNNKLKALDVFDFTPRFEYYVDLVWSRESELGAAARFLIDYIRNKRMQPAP

native MS [12] = biological target: the molecule itself; test: native MS
native MS [13] = biological target: the molecule itself; test: native MS; remark: listed apart in the source
[14] = biological target: T2, AceRFL (BRIL-AceR full length); test: native MS; 2 uM AceRFL, 2 uM RS1, no chlorhexidine; one RS1 per dimer; native MS; 200 mM ammonium acetate, pH 8.0 (AceRFL-DNA); temperature not stated; conditions: protein: recombinant; tags: N-terminal BRIL (apocytochrome b562RIL) fusion; 6xHis; chain copies: 2; blunt
native MS [15] = biological target: the molecule itself; test: native MS; remark: listed apart in the source

[H]/N=C(\N/C(=N/[H])NCCCCCCNC(=N)NC(=N)Nc1ccc(Cl)cc1)Nc1ccc(Cl)cc1 [chlorhexidine]
native mass spectrometry of purified mutant [1]: E15Q mutant and found that the binding of chlorhexidine also increased the dimer population of the mutant
Kd [2]: ~16 µM
native mass spectrometry of purified protein in detergent [3]: when tested with chlorhexidine, we observed multiple low-occupancy binding of up to three chlorhexidine molecules

AceI (Acinetobacter chlorhexidine efflux protein I), truncated form, residues 36 to 179 with a C-ter (domain or fragment)
Kd [4]: 5.69 µM
stoichiometry N [4]: 2

AceI (Acinetobacter chlorhexidine efflux protein I), truncated form, residues 36 to 179, with C-term (domain or fragment)
Kd [5]: 0.92 µM
stoichiometry N [5]: 2

BRIL (apocytochrome b562RIL)-fusion construct of full-length AceI (residues 1 to 179) (from UniProt P0DUT9 1-144) (natural protein)
stoichiometry N [6]: 2

BRIL (apocytochrome b562RIL)-fusion construct of truncated AceI (residues 36 to 179) (domain or fragment)
stoichiometry N [7]: 2

BRIL (apocytochrome b562RIL)-fusion of full-length AceI (residues 1 to 179) (from UniProt P0DUT9 1-144) (natural protein)
stoichiometry N [8]: 2

BRIL (apocytochrome b562RIL)-fusion of truncated AceI (residues 36 to 179) (domain or fragment)
stoichiometry N [9]: 2

E15Q AceI mutant (domain or fragment)
Kd [10]: 17.5 µM and 18.4 µM

B1: RS2 (site 2, 34 bp) (dsDNA)
DNA 1: ACTCTTCAACAAGAACTAATTATAAGTAGACAGT
DNA 2: ACTGTCTACTTATAATTAGTTCTTGTTGAAGAGT
binding result [11]: binds

B2: AceR^CTD: inducer-binding domain of AceR (amino acid residues 90 to 297) (domain or fragment)
chain: GLEPNLTIVVVSELLHTNWTDYVCLLESRFPDLQINIVSAPQEDALQMLLDGSAQLALMFEREHLDNREQFVELKREALIPVISKTHPLASQEHVSYEQILGTRQIVVASRDETLKPELLFSKHYWRTDNHHSACLMILRNLGWGVLPQEMFKENPELNNKLKALDVFDFTPRFEYYVDLVWSRESELGAAARFLIDYIRNKRMQPAP
notes: source: E. coli C43(DE3), purified (HisTrap-HP)
stoichiometry N (native MS [12]): 2

B3: AceR^CTD: inducer-binding domain of AceR (amino acid residues 90 to 297) (domain or fragment)
chain: B2 chain
stoichiometry N (native MS [13]): 2

B4: RS1 (site 1, 22 bp) (dsDNA)
DNA 1: TTTTTTAACTTTCTTGGACTAA
DNA 2: TTAGTCCAAGAAAGTTAAAAAA
binding result [14]: binds

B5: AceR^FL: full-length AceR (Acinetobacter chlorhexidine efflux protein regulator) with a Bril fusion at the N terminus (natural protein)
chain: T2 sequence
notes: as for B2
stoichiometry N (native MS [12]): 2 and 4
stoichiometry N (native MS [15]): 4

B6: AceR^FL: full-length AceR (Acinetobacter chlorhexidine efflux protein regulator) with a Bril fusion at the N terminus (natural protein)
chain: T2 sequence
notes: source: expressed in high yields, purified
stoichiometry N (native MS [13]): 2 and 4
